± gives the standard deviation.
Test: protein stability index of a GFP-peptide fusion (GPS, HEK-293T) (PSI 1-6); higher = more stable
Details: c terminus: a fixed tail appended
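Also: 24-mer peptide tiles fused after GFP, lentivirally expressed, FACS-sorted into six equal bins by GFP/DsRed ratio, decoded by Illumina sequencing, PSI is the read-weighted mean bin number.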

Row | Sequence | protein stability index (treatment: DMSO) | protein stability index (treatment: MLN4924 1 uM, 8 h)
1 | CFFRDHSYQEEAAMELKVEDPFYW [MOG] | 3.04 ± 0.23 | 3.02 ± 0.24
2 | CGPAEERVLLTGLHAVADIHCENC [YPEL3] | 3.25 ± 0.33 | 3.58 ± 0.67
3 | CKCGECTAPRTLPSCLACNRQCLC [SPRY1] | 4.05 ± 0.2 | 4.04 ± 0.14
4 | CKNGETLLGAVNFFVSSINTLVTK [ARFIP2] | 2.72 ± 0.75 | 2.64 ± 0.88
5 | CLEPLEQKLQEITRCKSSEEKKPG [TRIM39] | 4.89 ± 0.23 | 5.08 ± 0.18
6 | CPGKGAWSIPWKWLFGATAVALGG [FKBP8] | 2.42 ± 0.3 | 2.37 ± 0.25
7 | CRMSIRRVMPTQEVQELPIPSKLL [WSB1] | 2.42 ± 0.2 | 2.52 ± 0.2
8 | CSFSIERILGLDQKKDCVPLMKPH [HESX1] | 2.33 ± 0.19 | 2.43 ± 0.23
9 | CSPTAHDRECKLPPPSAPASEYCP [WDR88] | 4.55 ± 0.088 | 4.584 ± 0.039
10 | CSSARHPAWGHCFYRLYQDLETHR [SCNN1D] | 2.15 ± 0.17 | 2 ± 0.16
11 | CTLEQDHFKKQTIYRFLKLHPRGK [FEM1C] | 2.43 ± 0.27 | 2.65 ± 0.37
12 | CYNGQDAVVNELIDYGANVNQPNN [ANKRD44] | 4.16 ± 0.088 | 4.24 ± 0.21
13 | DAEFLCVFCREGPTHQAHTVGFLD [TRIM15] | 2.31 ± 0.27 | 2.34 ± 0.33
14 | DAETPPRFTRTPVDQTGVSGGVAS [PTPRD] | 5 ± 0.31 | 4.638 ± 0.016
15 | DAVFMKDGFFYFFHGTRQYKFDPK [MMP1] | 2.25 ± 0.33 | 2.1 ± 0.13
16 | DDALEDFKKVLDLNPGFQDATLSL [TTC32] | 3.73 ± 0.32 | 3.85 ± 0.32
17 | DDFFRHESGEHFRSLLGYDPQILQ [RAD54B] | 3.44 ± 0.22 | 3.29 ± 0.26
18 | DEIYRVLRYVNSTRAPQRAHEVLQ [FBXO28] | 2.43 ± 0.28 | 2.44 ± 0.33
19 | DELAHRCSSFMAPPVTDLGELRRR [CPOX] | 3.92 ± 0.11 | 4.04 ± 0.3
20 | DEQLNEFHCLWDDSFPEGPERLHA [HDAC6] | 4.55 ± 0.3 | 4.46 ± 0.35
21 | DFITLYQMASQSSASHYKLQVIKA [M1AP] | 2.63 ± 0.3 | 2.44 ± 0.43
22 | DGAGRTWQDSDTVKLLVDLELSYG [TOR1AIP2] | 2.37 ± 0.48 | 2.79 ± 0.43
23 | DGPCHKRRASICCTQLGSLSALKH [SCARA5] | 3.79 ± 0.11 | 3.65 ± 0.076

Row | Sequence | protein stability index (treatment: DMSO) | protein stability index (treatment: MLN4924 1 uM, 8 h)
24 | DHLENVSKLVESGIQFMDEPEMAV [TRIM55] | 4.54 ± 0.45 | 4.75 ± 0.41
25 | DIKRGIPNYEFKLGKITFIRNSRP [UFD1] | 2.27 ± 0.17 | 2.34 ± 0.21
26 | DINLNSPNKGLLSDSMTDVPVDTG [TPD52L2] | 4.19 ± 0.2 | 4.51 ± 0.22
27 | DITEGDRKPDYTAYVAMIPQCIKE [ATF4] | 3.28 ± 0.27 | 3.38 ± 0.37
28 | DKALMIAMEYAPGGTLAEFIQKRC [NEK8] | 2.39 ± 0.26 | 2.54 ± 0.17
29 | DKDVRLLVACCLADIFRIYAPEAP [PDS5B] | 3.08 ± 0.48 | 3.02 ± 0.08
30 | DKLYHPECFMCSDCGLNLKQRGYF [PDLIM4] | 2.22 ± 0.18 | 2.23 ± 0.33
31 | DKRHVEQKIQFKRETASLKLLPHQ [PDZK1] | 3.85 ± 0.31 | 3.8 ± 0.24
32 | DLCPPIGRRAATALLWLSCSIALL [GNAS] | 2.59 ± 0.63 | 2.19 ± 0.28
33 | DNLRKVVPCYSKTQKLSKIETLRL [NEUROD6] | 2.81 ± 0.17 | 2.8 ± 0.32
34 | DNSLSSQNYISQKEDASEFQILKY [MIA2] | 3.94 ± 0.27 | 3.74 ± 0.6
35 | DPNINPTIGASFMTKTVQYQNELH [RAB22A] | 4.29 ± 0.31 | 4.19 ± 0.23
36 | DPPLSQDERTHRSDRPFKCNQCGK [ZNF8] | 5.01 ± 0.24 | 5.11 ± 0.14
37 | DPTGASIALFTARLHHPHKSVQHV [PTPN9] | 2.37 ± 0.29 | 2.64 ± 0.23
38 | DQCKINKQIYNLIHLDPRTREGFT [FEM1B] | 2.2 ± 0.35 | 2.52 ± 0.38
39 | DRDAEDQNRYLDGMVRAHGVRVSV [BET1L] | 3.85 ± 0.22 | 3.87 ± 0.29
40 | DRISTTFRLTTLLMSGCSSELKNR [PLK2] | 2.19 ± 0.46 | 2.43 ± 0.18
41 | DRNVVTIFSAPNYCYRCGNQAAIM [PPP2CA] | 2.7 ± 0.79 | 2.11 ± 0.23
42 | DSCCPAGIFQAMCLLICAEMYQVS [RHOBTB3] | 3.07 ± 0.12 | 3.02 ± 0.31
43 | DSKHVVLPVDDDSDLNVVASFDRR [RBBP5] | 4.73 ± 0.39 | 5.21 ± 0.23
44 | DSQVSEEVKTRHSEKSQREDEEEE [CHGB] | 5.75 ± 0.099 | 5.49 ± 0.21
45 | DSTGYMEVSLDSLDLRVKGILSSQ [EHMT1] | 3.08 ± 0.36 | 3.17 ± 0.29
46 | DTDAEGDDFELLDQSELSQLDPAS [RETREG3] | 5.61 ± 0.065 | 5.57 ± 0.16

Row | Sequence | protein stability index (treatment: DMSO) | protein stability index (treatment: MLN4924 1 uM, 8 h)
47 | DTETFTWSQPITTGKAPSPRAAHA [KLHDC2] | 4.31 ± 0.082 | 4.41 ± 0.51
48 | DTFQKELMCFDPDTDKWIQKAPMT [KLHL13] | 4.16 ± 0.28 | 3.87 ± 0.15
49 | DTMLEEVENKEKDSNMPHFQTLQA [CEP70] | 4.94 ± 0.22 | 4.93 ± 0.15
50 | DVKAMGPLVLTEVLFNEKIREQIK [EIF5] | 2.39 ± 0.11 | 2.28 ± 0.34
51 | DVKCYQGTDIVRGCDPLVKPVGRQ [ADAMTSL2] | 3.68 ± 0.3 | 3.88 ± 0.27
52 | DVTAKNIWLAESVLDILTEQREWV [INTS3] | 2.3 ± 0.24 | 2.65 ± 0.33
53 | DYVQLENQWETPPEDLQTDLAKLV [ZNF449] | 4.19 ± 0.3 | 4.31 ± 0.059
54 | EAGYYFFNGNYKVDSPKNFNIAGT [ADAMTSL2] | 2.34 ± 0.35 | 2.44 ± 0.31
55 | EAQERELRKREKAEEKERRRKEYD [LRRC59] | 5.4 ± 0.18 | 5.49 ± 0.3
56 | EASNFQMDRKTRFIIHGFIDKGDE [PNLIPRP1] | 3.26 ± 0.21 | 3.27 ± 0.27
57 | EAVPARGEPQQDCCVKTELLGEET [EHMT1] | 5.52 ± 0.27 | 5.65 ± 0.26
58 | ECEKSALTPGFSDNAIMLFSPDFT [FAN1] | 3.49 ± 0.19 | 3.79 ± 0.26
59 | ECSNIPLSQPQQGEAMLANFKPRG [GAN] | 3.5 ± 0.9 | 3.97 ± 0.34
60 | EDEGFVREEEDRALPENEFKKQIW [KCNA4] | 5.18 ± 0.17 | 5.19 ± 0.2
61 | EDESQSEEENDYRNLDASPTYKGL [CEP70] | 5.27 ± 0.23 | 5.41 ± 0.15
62 | EDITYVLKPTFTKQQIANLDKQAK [USP39] | 4.01 ± 0.097 | 4.17 ± 0.13
63 | EDLEWERYRGRGSEEYRAPRPQSE [CHGB] | 5.19 ± 0.38 | 5.33 ± 0.23
64 | EDSSLPSINALLQAEVLSRQITSP [HNF4A] | 4.25 ± 0.16 | 4.27 ± 0.093
65 | EEDEQLRALVRQFGQQDWKFLASH [MYBL2] | 3.17 ± 0.36 | 3.46 ± 0.17
66 | EEEAGQTSIEPSKSSIIPFRALKR [ZER1] | 4.87 ± 0.26 | 5.09 ± 0.16
67 | EEHWVGLKKEPGHPWKWSNGKEFN [CD69] | 3.19 ± 0.27 | 3.33 ± 0.21
68 | EEKERIGQFVFARDAKAAMAGRLM [AASDHPPT] | 3.36 ± 0.19 | 3.43 ± 0.32
69 | EEPSKYGVVVCEADTGRIHRFVEK [GMPPB] | 3.94 ± 0.32 | 3.99 ± 0.18

Row | Sequence | protein stability index (treatment: DMSO) | protein stability index (treatment: MLN4924 1 uM, 8 h)
70 | EERERKRRKEEEVQQQKLAEERRR [FAF2] | 5.34 ± 0.34 | 5.36 ± 0.25
71 | EERILHQQVKCIITEEKVCMVCKK [VPS39] | 4.21 ± 0.33 | 4.39 ± 0.29
72 | EESASRQRFGEALQDQEKAWGFPE [ELOA2] | 5 ± 0.16 | 5 ± 0.31
73 | EEVVSFVKKNVLVTGGFFGGFLLG [FUNDC2] | 2.36 ± 0.68 | 2.61 ± 0.73
74 | EEWLLVGTKQGHLLLYRIRKDVGC [VPS39] | 3.08 ± 1.3 | 2.48 ± 0.5
75 | EFFGSASQPAVELVSGSQSALGPP [CLINT1] | 3.96 ± 0.11 | 3.92 ± 0.51
76 | EFPQFEPQRYPACAQMLPPNLSPH [TRAF3IP2] | 3.22 ± 0.18 | 3.1 ± 0.36
77 | EFRDDRDLVMALSAGGHGGLLNDT [KCNA4] | 4.06 ± 0.35 | 3.91 ± 0.23
78 | EFTELLKVMIHPDPERRPSAMALV [WEE1] | 2.23 ± 0.35 | 2.06 ± 0.23
79 | EFVIIDCRYPYEYEGGHIKGAVNL [CDC25A] | 2.47 ± 0.29 | 2.3 ± 0.43
80 | EGEIATYRHLLEGEDCKLPPQPCA [KRT36] | 4.6 ± 0.26 | 4.26 ± 0.24
81 | EGHLDDGGYTPDLKMSYSRGLIPV [RBMY1A1] | 3.25 ± 0.14 | 3.15 ± 0.38
82 | EGIKVEDLLFIVDTMLEEVENKEK [CEP70] | 3.07 ± 0.27 | 3.03 ± 0.42
83 | EGVDIKNGTEDLPYAMKPIDYYTE [NSDHL] | 4.72 ± 0.25 | 4.76 ± 0.27
84 | EISRGEYLYTYDSQITDSEHNSSL [ZNF8] | 4.29 ± 0.49 | 4.25 ± 0.54
85 | EIVGNLGEGTFGKVVECLDHARGK [CLK3] | 3.81 ± 0.1 | 3.97 ± 0.29
86 | EKEFMKGNQLISNNIKFKKSSILT [CLCN6] | 3.46 ± 0.17 | 3.48 ± 0.38
87 | EKKEKEKKKKDKEKEKEKHKVKAE [BRD3] | 5.41 ± 0.22 | 5.53 ± 0.42
88 | EKVSQELKEPLHKALQMLLSQPVT [BCL2L13] | 2.88 ± 0.26 | 3 ± 0.45
89 | ELARIVLLRHRMNWLGRPSKVLSL [RAB40A] | 2.46 ± 0.73 | 2.43 ± 0.43
